Laboratory results as given in article PMC3320877 (2012).

Legend:
[1] = biological target: T1, recombinant His-tagged insect-cell expressed CCR5, detergent-solubilised (UniProt P51681 1-352); test: SPR; two binding site model, KD2 (second site)
[2] = biological target: T1, recombinant His-tagged insect-cell …; test: SPR; two binding site model, KD1
[3] = biological target: T1, recombinant His-tagged insect-cell …; test: SPR; 1:1 binding model

T1 sequence (P51681 whole entry): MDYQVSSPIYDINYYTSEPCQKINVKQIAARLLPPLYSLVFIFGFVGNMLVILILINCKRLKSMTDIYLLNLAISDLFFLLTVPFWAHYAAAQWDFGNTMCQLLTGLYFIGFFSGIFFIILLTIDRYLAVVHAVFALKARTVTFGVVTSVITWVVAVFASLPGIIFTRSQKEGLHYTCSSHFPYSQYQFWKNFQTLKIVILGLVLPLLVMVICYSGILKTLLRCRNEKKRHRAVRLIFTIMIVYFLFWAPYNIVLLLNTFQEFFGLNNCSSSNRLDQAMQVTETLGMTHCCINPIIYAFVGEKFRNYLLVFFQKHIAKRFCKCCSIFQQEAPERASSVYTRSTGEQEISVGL

B1: visfatin (recombinant) (natural protein)
chain: MNPAAEAEFNILLATDSYKVTHYKQYPPNTSKVYSYFECREKKTENSKLRKVKYEETVFYGLQYILNKYLKGKVVTKEKIQEAKDVYKEHFQDDVFNEKGWNYILEKYDGHLPIEIKAVPEGFVIPRGNVLFTVENTDPECYWLTNWIETILVQSWYPITVATNSREQKKILAKYLLETSGNLDGLEYKLHDFGYRGVSSQETAGIGASAHLVNFKGTDTVAGLALIKKYYGTKDPVPGYSVPAAEHSTITAWGKDHEKDAFEHIVTQFSSVPVSVVSDSYDIYNACEKIWGEDLRHLIVSRSTQAPLIIRPDSGNPLDTVLKVLEILGKKFPVTENSKGYKLLPPYLRVIQGDGVDINTLQEIVEGMKQKMWSIENIAFGSGGGLLQKLTRDLLNCSFKCSYVVTNGLGINVFKDPVADPNKRSKKGRLSLHRTPAGNFVTLEEGKGDLEEYGQDLLHTVFKNGKVTKSYSFDEIRKNAQLNIELEAAHH
Kd [1]: 600 nM
Kd [2]: 2 nM
Kd [3]: 5000 nM
